B1: MBP-CRACR2a_(47–122), EF-hand pair of calcium release-activated calcium channel regulator 2A (domain or fragment, human, UniProt Q9BSW2-1 47-122, looked up)
chain: GQLVMLRKAQEFFQTCDAEGKGFIARKDMQRLHKELPLSLEELEDVFDALDADGNGYLTPQEFTTGFSHFFFSQNN
notes: Cloned into pMAL-c2X; the MBP tag was not removed for the ITC experiments; also called Ca^2+-CRACR2a; not shown: MBP, N-terminal, kept
B2: FIP3_(206–270), EF-hand pair of Rab11 family-interacting protein 3 (domain or fragment, human, UniProt O75154-1 206-270, looked up)
chain: RLRAVFDALDGDGDGFVRIEDFIQFATVYGAEQVKDLTKYLDPSGLGVISFEDFYQGITAIRNGD
notes: Cloned into pMAL-c2X
B3: NIN_(1–87), first EF-hand pair of Ninein (domain or fragment, human, UniProt Q8N4C6-1 1-87, looked up)
chain: MDEVEQDQHEARLKELFDSFDTTGTGSLGQEELTDLCHMLSLEEVAPVLQQTLLQDNLLGRVHFDQFKEALILILSRTLSNEEHFQE
notes: NIN (Ninein), human, UniProt Q8N4C6-1, residues 1-87 (EF-hand pair); Cloned into pMAL-c2X

Assays:
Details in all cases: both partners purified
[1] = biological target: T1, MBP-LIC1FL, full-length dynein light intermediate chain-1 (human, UniProt Q9Y6G9 1-523); test: ITC; EF-hand pairs titrated into MBP-LIC1FL; 20 mM HEPES (pH 7.5), 100 mM NaCl, 0.5 mM TCEP, 5 mM CaCl2; 20 or 30 °C
T1 construct: cytoplasmic dynein-1 light intermediate chain-1 (LIC1), human, full length; also called MBP-LICFL; full-length LIC1
T1 sequence (Q9Y6G9 whole entry): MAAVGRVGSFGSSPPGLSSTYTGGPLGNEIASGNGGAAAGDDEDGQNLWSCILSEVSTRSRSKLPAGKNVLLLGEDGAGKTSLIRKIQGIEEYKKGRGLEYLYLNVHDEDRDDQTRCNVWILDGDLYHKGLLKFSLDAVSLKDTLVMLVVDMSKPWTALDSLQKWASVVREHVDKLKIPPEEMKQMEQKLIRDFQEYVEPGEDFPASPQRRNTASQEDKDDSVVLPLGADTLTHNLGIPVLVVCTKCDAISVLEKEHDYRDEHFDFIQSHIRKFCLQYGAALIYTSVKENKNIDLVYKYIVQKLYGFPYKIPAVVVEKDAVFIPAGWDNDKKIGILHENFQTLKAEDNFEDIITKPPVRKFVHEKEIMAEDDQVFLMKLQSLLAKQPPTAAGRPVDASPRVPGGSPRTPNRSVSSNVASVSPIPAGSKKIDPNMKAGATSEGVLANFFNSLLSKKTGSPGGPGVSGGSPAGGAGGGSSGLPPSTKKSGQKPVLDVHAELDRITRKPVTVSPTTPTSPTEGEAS

[2] = biological target: B3; test: ITC; EF-hand pairs titrated into LIC1_(433–458); 20 mM HEPES (pH 7.5), 100 mM NaCl, 0.5 mM TCEP; 5 mM CaCl2 or 5 mM EGTA as indicated in the figure; 20 or 30 °C
[3] = biological target: B2; test: as above
[4] = biological target: B1; test: as above

Row | Kd [1] [µM] | stoichiometry N [1] | Kd [2] [µM] | Kd [3] [µM] | Kd [4] [µM] | Binder
1 | ~3.6 | ~1 |  |  |  | B1
2 | ~6.1 | ~1 |  |  |  | B2
3 |  |  | ~5.4 | ~2 | ~1.4 | NMKAGATSEGVLANFFNSLLSKKTGS (peptide, UniProt Q9Y6G9 433-458, looked up, Its concentration was determined with fluorescamine-labeled peptide; also called LIC1 helix; source: peptide after reverse-phase purification) [LIC1_(433–458), amphipathic helix of the dynein light intermediate chain-1]
4 | ~12 | ~1 |  |  |  | B3

Reference: PMC7655957, “A tunable LIC1-adaptor interaction modulates dynein activity in a cargo-specific manner” (Nature Communications, 2020)
